This passage reports cpm, % inhibition and cpm Bound results from patent publication US6949244.

Some results are limits rather than exact numbers.

The target in assay [1] is BrE-3. Briefly: RIA: plate coated with 1000 ng 11D10, 125I-BrE-3 bound.
Assay [2] addresses murine monoclonal anti-HMFG antibody MC-10 (BrE-1). Briefly: competition RIA: 125I-11D10 on BrE-1 coated plate, 0.250 µg unlabeled 11D10.
For assay [3] the target is unchanged. As to the kind of experiment: RIA: plate coated with 300 ng 11D10, 125I-BrE-1 bound.
Assay [4] has the same target. As to the kind of experiment: RIA: 125I-11D10 bound to BrE-1 coated plate, no inhibitor.
For assay [5] the target is unchanged. Briefly: competition RIA: 250 ng 11D10 mixed with labeled BrE-1, binding to MCF-7 / SKBR3 cell monolayers.
Assay [6] has the same target. Briefly: RIA: plate coated with 1000 ng 11D10, 125I-BrE-1 bound.
Assay [7] addresses BrE-3. Briefly: RIA: plate coated with 300 ng 11D10, 125I-BrE-3 bound.
Assay [8] concerns the target murine monoclonal anti-HMFG antibody MC-10 (BrE-1). Briefly: RIA: plate coated with 100 ng 11D10, 125I-BrE-1 bound.
The target in assay [9] is BrE-3. As to the kind of experiment: RIA: plate coated with 100 ng 11D10, 125I-BrE-3 bound.

As for monoclonal anti-idiotype antibody 11D10, the cpm was determined as 374 cpm in the assay with BrE-3 [1]; 16700 cpm in [3]; 44200 cpm in assay [6]; 260 cpm with BrE-3 [7]; 6150 cpm in [8]; 263 cpm with BrE-3 [9]. The % inhibition is 95% in assay [2] and greater than 90% in assay [5]. In addition, the cpm Bound in [2] turned out to be 1850 cpm; in [4], 37100 cpm.

The term % inhibition denotes how much of the control response was suppressed. Higher therefore signals a strong effect.
